Assay results taken from the domain aggregation screens of Martell et al. (2025).

Experiment: soluble fraction after stress (log2 fold change); higher = more stays soluble; pooled small domains, quantitative proteomics
Conditions: stress: 75 degC
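Also: 20 min heating vs room temperature control held 20 min.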

| Sequence | soluble fraction (log2) |
| --- | --- |
| HMAAAQILRAAVLRVPAEETMRFVTETPELRRYLGASLGPTAAIVRPGQEQNLAAALQSHGILVEFDE | -0.0423 |
| HMAADLIGLEARVTLPLTEDQRGFIETSVRGSLVRRAALSASGRLDRGQRVVILRSEGTTLIVDAL | -3.37 |
| HMAADRRKAERPLIDGQAVMDRFEVGPGPMVGKALKFLLALKRAEPDLDLAGTEERLDAWWNEQL | 0.0606 |
| HMAAEFERKNGIVYFFHSSEKPHLNYPHVHARYGEDTISISLRDFTVIGSFSSKKKQKEAVEYVKNK | -0.829 |
| HMAAEPDQQLIKPASDPVLRTMKIEELMKMSEQVKIQMSKAAKNFDYLEAARLRDEHFALENLIKLRS | -0.106 |
| HMAAGELSGEALIALIERHPMALSALATTFGHSESDLRAFVEPLARQGRLRLFESQGTLFVGGIG | -0.5 |
| HMAAHHIILEEREQLSVSGVEEVESFDENTIVMLTNRGTLIVRGEELHIEKLSLDGGDLRVEGSIDSLTYE | -0.465 |
| HMAAHWANFLEALRAGRARRVLVARGVEGWLLKELERLGAPYTLVPRIELDTLLRTTHHQGIAAEVE | -1.46 |
| HMAAPELLTVRERQVAALISDGLSNQQIAHRLHLEVTTVKAHIGSIFNRLDMNNRVQIAIWAHDRQLVFS | -0.161 |
| HMAAQDIILKRNAEQIEAIVKEITDTDVKYRKFTNTEGVTYSIRRSEVFSITYENGTMDLFA | 0.248 |
| HMAAQDLIVKTDASQVEARVLEISPDAVRYKRFSNPDGPTYVLPVAEIRYIRYANGEVEYYA | -0.624 |
| HMAAQLAHVPAVTGRPLAEAQRILADNRLNAQVTQQPVAEPKLDGVVIAQKITEGTRTMRGATVPLIVGKY | -0.00421 |
| HMAASGTVNSGGDPLRVRADPNTSSQILTKLSDGTQVEVLEQAENGWYKIAHEGISGFVSGEYLVVH | 0.0197 |
| HMAAVAPPVLERIASDLATRFAGTLSPETVDRYVRESYHLLAERAGITRYLPSLTARFAGDRLDA | 0.0295 |
| HMAAVEDLPVKSVNGKKYHYYTVQPKESLYSLSHKLGISRQEIIKYNPGVEDGLKAYEDLLFPYTPK | 0.192 |
| HMAAVSTDEEFAALGIPAEWIPVLKSNGFQTVESLKKVAPGALFNQLGGLRKKNKLEIAMPSLDQVKAWLA | 0.333 |
| HMADDFISTLFSEGIIIDTEVKQFAERQGSPLQFVRHIASNLPEPRDIITMGEVRSVMREGA | -0.00121 |
| HMADEEEIMVPQVVGKTYDEAKSELENAGFKVEKNEKTSDKASGTVISQSINGGAKKGTSVTLTVSKGN | 0.0356 |
| HMADFYEVLGVERNASSDQIKRAYRKLARELHPDVNLDPVAQNRFKEVTEAYEVLSDPNKRSNFDRG | 0.0366 |
| HMADGEWAEMQRQLTAAGLLVVGRAAQERIQRLSDISPLIEAAQRSNVVMLSERTVDEVLTLVPT | -0.225 |
| HMADGTSIYAEREVLYVTSPTANTAKVYNVSGALVRTMTLSAGQTVRTALPAGFYVVALGNGNTHKVIV | -2.4 |
| HMADKSLLELPGLDGDKVSALVTAGVRNVNDLADLATDELVEKTGFDEKTAADLIIAARAVVY | 0.43 |
| HMADLNQTDIDSITKSVGGVEQYKSLMDWAGKTLSQDAIDSFDDLVNTGNKGSIQLAVNGLVAQYQNDN | 0.167 |
| HMADMKIHLRPYAHDTNRWHVDIRLMHPTAATEIRKRLVAPAGLSEAQARAWGERQVPTILGKALGVI | -1.65 |
| HMADNILPAQTDAIKALATENGFSNESLEKYLIENYGTTIYGLSRNQGIQIINLFQSENPPKP | 0.277 |
| HMADQIIEGILGKEGGYVNNPNDKGGPTRWGITQTTARAYGYSGDMKALPRDTAKAIYLSQYWT | -0.0711 |

| Sequence | soluble fraction (log2) |
| --- | --- |
| HMADTPQAYIRQMVQEAGADGIMLSTITDRLRARFKDFKVRDLGYAQMRQYMASTGTYDLEKSGRNFRVHL | -1.06 |
| HMADTSLDHLGVLVRHASDVDAWAEFFENRGVTLASQPRTHRDGARSFYVDDPDGNRVQVIYHPPI | -0.779 |
| HMADWTETELAALRRAYASGTTRVSYDGKSVDYGSAEDLLSRIRTLQGAASDVAADAVAAVDA | -0.0473 |
| HMADYSMDDNAWNAKKADIDEWFEANPDFSANKAITDGLFSIGDSQVEMRKRYWASIAGVFAGLPNSPIG | 0.0121 |
| HMAEANTEADFVAIGVRAELLPILQKLGVHTIEQLKGIKATKLFNDIPGMRKKLKLDAVQNPTLQEIEGWL | -0.146 |
| HMAEAPGSVELLAERLRPWWEIHGGEWGSKTKALRFLFGDQAPVAGSYWRALEAAIAQIESTT | -0.692 |
| HMAEKNALWEEDAVYAADSSALARDGYDAIVRTDKGGKKGYLVVGTGGRERFMPLQTLVMLGYLKK | -0.433 |
| HMAEKRTAIITTARADIRQKPEATAPLAFEAVKDVVLELTDKPADGWVRVKHRDGSTGYIRINQI | 0.0638 |
| HMAELAKAKLDAAVQVALLKAGALDTDYLAYKLQGMDGVALDDKGSLTGWDTTLETLKSQYPTQFA | -0.368 |
| HMAEPTLNERLREALSDPAKLKIAKAIKAKYPIITARDIDTFLNMHEKDIENGADPMDEFEEFFHANY | 0.201 |
| HMAEPYDEDKVMEHLYIKGKDVVIAHLKHLKEHNEHVWLKKGVEWMQKNQDRLGFDMMEVIYVVHNH | -0.833 |
| HMAEQEELDAIRPDLDGQEIMDILGIKPGREVGAARNFLLELRLDEGPLGYDEAVSRLLTWWAERT | -0.0583 |
| HMAETLLWADAAQEGLNRIVAAQPILVRISAAKRLRDASEQAAKAAGVSTVEIGHVQHASESLQFGDA | 0.0809 |
| HMAETLRLVGATNLNTLARARHPDDLAARNEFRRAIAQANPALFAGKSKVGSVSLPAGTVLALPPEV | 0.0163 |
| HMAEVDDESIKLYDGGYQSNTTKSRLNALLSEFGYDTEHVFQKQFEWFISIFDLTEKAMRTVPFSNGMRL | 0.0627 |
| HMAEVGDFTLAELIKVLFNEAGVLKAPVELRNDNTGGLQYRVGAYTDSETGWETIASIADLKGA | -0.734 |
| HMAEWLLVQLTNGNWFYGEVIEKTDATIVLNTDILGKVSIQKLDIRRSISGPLTAAKRQEIEDSERAKD | -1.65 |
| HMAFDDAHYKDMITSYLKKFKKGNRSEIENLIIPKLSEVLVEKQKKDKVKNLLQALRKDNQIRLKGKYWYL | 0.422 |
| HMAFIEADIGKRIKSLRNKKRITLESLAAETGFTKGYLSKVETSEKAPPVSTLGSIARALGVSISTLLGE | -1.31 |
| HMAFKDDDVQKAYDRYMDRYGELSVLYSDNGLKVDDDLFYKNNIPPNGKFTKEFFDELYELVNMEFINNY | -0.173 |
| HMAFRLPNGYGTIRRLTGNRRKPYVALVNPTQVFDDEKGTSHYKYDLLGTFAEKIDAYNAVMQYHKSPGGL | -1.13 |
| HMAGAPANLAARLREQILQGAYHDGQRLPAERHLAAEHGVSRGTVREALRLLEQGALLTRKRGSGSYVTYP | -0.516 |
| HMAGDVVVEVVGKVRDPQVVTLPKGSRVQDALEAAGGVKPGVNTTDQNLARLLVDGEQIRIGLSS | 0.107 |
| HMAGFGDSLEKMSDAVEALKLLMSTEDARNDQNIQKIARELKDVFNKYRTHLRKSYPDQYDRIKSTL | -0.742 |
| HMAGGNHPTRLELLDSAAHIAERDGTSALTVDAITKSAGHAKGTFYIHFDDRADLLVEMHRR | -0.247 |
| HMAGIPIHMSQLKQIILLLSQGYPIKGIARETGVSRNTIKGYLQTLTSQDLNVTDALKLENIQLEYLLRSP | -1.97 |

| Sequence | soluble fraction (log2) |
| --- | --- |
| HMAGLYSLLLVELPMERLPEDLPAIKAAWLKTGDTEAFKVALQAMSSRGWTIAVPGKHRDTQMTQL | 0.259 |
| HMAGPVLTPEEAEVLRILADHGEMTVDNISAEGKMSAAVVLRGLGVLSAYGLVAPGGPGRWRSE | -0.806 |
| HMAGTDLSERESEIAMLLLKGYPYKLIASRLYISESTVKSHVQNIYGKLGIHSRTELIEQFSAS | -0.649 |
| HMAGTPAIVKWFNPTKGFGFVTPKEAGSDALLHASVLAKRGKRWLQEGTLVEVLIEEGPKGLVVSELLTIE | -0.84 |
| HMAGTRRFELVEGSSSKFWEVTVADGSYTVTYGRIGTAGGSKTTESATAEADAEKLVREKLKKGYQEAGAA | 0.102 |
| HMAGTRVWSENGQLYVTAAVSGRANVYNVLGKLNRSLTFSAGETKSVSVPAGIYVVSLNNGKAYKVAV | -3.28 |
| HMAGWIPVEERLPDDLTNPITRDAYVYPVTVDLGDVTDIRYYSFWRGHWYNQGPETMDDLVIAWMLLPEPY | -0.279 |
| HMAHESYVKEQLLLSLTNHEDPIMQISLIEQLTKMHERNIIHELEKLTVDVQTNEEVKVQAYASLLILS | -0.869 |
| HMAHKYYSIMRPVSIGTFPDNGTILGIVNFDTRQMVESIGKMAWGYINYGKPLTEKQISDYELVAE | -1.4 |
| HMAHLNYQTVDINALIRHSLQLVSQDAQSRGIALQFTPRPELTTISADPDRLNQVLLNLYLNAMQD | -0.607 |
| HMAHLSPNDAARLVGVSRPLLNQILDEGRITFFETAGGHRKIKLAAVLAYIKERDEVAAQLAAART | -0.724 |
| HMAHSDEAWSVARRVARELDKILDGAGPRRTALVRAAAELRLSTRQIYNLLARYRADRTVTSLLPRR | -0.27 |
| HMAHSWEAIRVKLQQIIDEEDKTKPLNDDQIKEKLAEAGIPNLARRTVAKYRKLLNIPTARFRKR | -0.993 |
| HMAIDINKIYSEIKKKIPNQDNHIKEILSIIWRDFNNYQNIKSRSILINGEKSSPKKEIFNIIEDNINIPV | 0.0633 |
| HMAIDPLLDKGYEQYDKGEFTEAVKSFNRAIEIDPKNAEAHFLRAMTYQGLALSKLAVADLEKAIV | 0.0903 |
| HMAIGDYYINASALNVRSGEGTNYRIIGALPQGQKVQVISENSGWSKINYNGQTGYIGTRYLSKTPV | -0.264 |
| HMAIHTSVTEHGEHDLTVRMEMEQVFAIEMAVVSHEQATMLERTFKANAEAIYQKLLGVMTQEYP | -2.42 |
| HMAISEEEATNLALERVPGASAQDLRIQLEFDDGVQKYEGDIIYDGKEYDFEIDANTGTFLEWSE | -0.0521 |
| HMAISSADRIVAELRTWISGASPGTQLPSSRTLAARYGASPVTVQKALHTLAGMGLVEARPGAGTFVRRQS | -1.42 |
| HMAITVPEGATLSDAAVLLKQAGAVRSADAFLTRAKVFGGSTPIKAGEFVIPVQASNKDILAILQGGK | 0.0742 |
| HMAKIATTVYEQIRTAILNGELSNSERLVEEDLAVSMGISRTPVREALRRLAAEGLVDVSPNRGARVAE | -0.27 |
| HMAKINFTSDAIDIGMVTRNDIEMLSFYQNVLGLTKDMEIPFPGLGVVNKLSFGSGFIKILVL | 0.0804 |
| HMAKLGITQREQEVLQLLVTGKTYKEIAAELFISLPTVKTHVSNIYSKAKVRNRLELSNLINYI | -3.37 |
| HMAKNYYEILGLKSDATLPEIKKAFKKLSKKFHPDKNRDDDGYFESMFKSINEAYQVLIDEDKRATFDSHH | -0.758 |
| HMAKPAALLFEHRFDGMAEMRFRENIVKNDDGSYTYDEYFLSMLDRAGLEKIVQENMEVWIAYAKQ | -2.1 |
